B1: peptide HD2 (from tick evasin EVA4) / CCL22 (biotinylated, synthetic) (parent complex)
chain 1: EEDDYTAYAPLTCYFT
chain 2: GPYGANMEDSVCCRDYVRYRLPLRVVKHFYWTSDSCPRPGVVLLTFRDKEICADPRVPWVKMILNKLSQ

In the assay the parent is B1.
As for chain 1 EEDDTTAYAPLTCYFT [chain 1 Y5T], the enrichment is -6.08 log2 (difference from the parental peptide).
To chain 1 EEDDFTAYAPLTCYFT [chain 1 Y5F] belongs -1.41 log2 (difference from the parental peptide); to chain 1 EEDDNTAYAPLTCYFT [chain 1 Y5N], -6.71 log2 (difference from the parental peptide); to chain 1 EEDDDTAYAPLTCYFT [chain 1 Y5D], -5.05 log2 (difference from the parental peptide).
Under chain 1 EEDDCTAYAPLTCYFT [chain 1 Y5C] stands -5.08 log2 (difference from the parental peptide).
Under chain 1 EEDDVTAYAPLTCYFT [chain 1 Y5V] stands -5.81 log2 (difference from the parental peptide).
Take chain 1 EEDDETAYAPLTCYFT [chain 1 Y5E]: the enrichment was -3.48 log2 (difference from the parental peptide).
With chain 1 EEDDHTAYAPLTCYFT [chain 1 Y5H], the enrichment is -5 log2 (difference from the parental peptide).
For the variant chain 1 EEDDYTAYAPLDCYFT [chain 1 T12D], the enrichment is -6.65 log2 (difference from the parental peptide).
To chain 1 EEDDYTAYAPLECYFT [chain 1 T12E] belongs -7.95 log2 (difference from the parental peptide).
Regarding chain 1 EEDDYTAYAPLLCYFT [chain 1 T12L], the enrichment was 0.0229 log2 (difference from the parental peptide).
As to chain 1 EEDDYTAYAPLVCYFT [chain 1 T12V], the enrichment was -0.299 log2 (difference from the parental peptide).
With chain 1 EEDDYTAYAPLCCYFT [chain 1 T12C], the enrichment was -1.01 log2 (difference from the parental peptide).
Take chain 1 EEDDYTAYAPLGCYFT [chain 1 T12G]: the enrichment is -10.3 log2 (difference from the parental peptide).
On to chain 1 EEDDYTAYAPLQCYFT [chain 1 T12Q], for which the enrichment is 0.207 log2 (difference from the parental peptide).
chain 1 EEDDYTAYAPLTCYPT [chain 1 F15P]: the enrichment was -1.52 log2 (difference from the parental peptide).
For chain 1 EEDDYTAYAPLTCYRT [chain 1 F15R], the enrichment was 0.817 log2 (difference from the parental peptide).
Take chain 1 EEDDYTAYAPLTCYVT [chain 1 F15V]: the enrichment was 0.452 log2 (difference from the parental peptide).
Turning to chain 1 EEDDYTAYAPLTCYET [chain 1 F15E], the enrichment is -3.12 log2 (difference from the parental peptide).
For the variant chain 1 EEDDYTAYAPLTCYST [chain 1 F15S], the enrichment is -0.181 log2 (difference from the parental peptide).
Under chain 1 EEDDYTAYAPLTCYAT [chain 1 F15A] stands 1.19 log2 (difference from the parental peptide); under chain 1 EEDDYTAYAPLTCYIT [chain 1 F15I], -0.829 log2 (difference from the parental peptide); under chain 1 EEDDYTAYAPLTCYCT [chain 1 F15C], -4.84 log2 (difference from the parental peptide).
On to chain 1 EEDDYTAYAPLTCYYT [chain 1 F15Y], for which the enrichment was 1.03 log2 (difference from the parental peptide).
In the case of chain 1 EEDDYTAYAPLTCYMT [chain 1 F15M], the enrichment was 0.54 log2 (difference from the parental peptide).
Consider chain 1 EEDDYTAYAFLTCYFT [chain 1 P10F], for which the enrichment was -9.41 log2 (difference from the parental peptide).
For chain 1 EEDDYTAYALLTCYFT [chain 1 P10L], the enrichment was -7.92 log2 (difference from the parental peptide).
For the variant chain 1 EEDDYTAYAELTCYFT [chain 1 P10E], the enrichment was -6.9 log2 (difference from the parental peptide).
chain 1 EEDDYTAYAPLTCHFT [chain 1 Y14H]: the enrichment is 2.15 log2 (difference from the parental peptide).
To chain 1 EEDDYTAYAPLTCDFT [chain 1 Y14D] belongs -4.53 log2 (difference from the parental peptide); to chain 1 EEDDYTAYAPLTCIFT [chain 1 Y14I], -0.881 log2 (difference from the parental peptide); to chain 1 EEDDYTAYAPLTCCFT [chain 1 Y14C], -2.09 log2 (difference from the parental peptide).
Under chain 1 EEDDYTAYAPLTCMFT [chain 1 Y14M] stands -1.86 log2 (difference from the parental peptide); under chain 1 EEDDYTAYAPLTCEFT [chain 1 Y14E], -6.44 log2 (difference from the parental peptide); under chain 1 EEDDYTAYAPLTCQFT [chain 1 Y14Q], -0.26 log2 (difference from the parental peptide).
Take chain 1 EEDDYTAYAPLTCYFY [chain 1 T16Y]: the enrichment was -0.842 log2 (difference from the parental peptide).
Turning to chain 1 EEDDYTAYAPLTCYFI [chain 1 T16I], the enrichment was 0.113 log2 (difference from the parental peptide).
For the variant chain 1 EEDDYTAYAPLTCYFK [chain 1 T16K], the enrichment is 2.2 log2 (difference from the parental peptide).
To chain 1 EEDDYTAYAPLTCYFA [chain 1 T16A] belongs 1.77 log2 (difference from the parental peptide).
For the variant chain 1 EEDDYTAYAPLTCYFM [chain 1 T16M], the enrichment is 0.731 log2 (difference from the parental peptide).
For the variant chain 1 EEDDYTAYAPLTCYFG [chain 1 T16G], the enrichment is 1.83 log2 (difference from the parental peptide).
As for chain 1 EEDDYTAYAPLTCYFE [chain 1 T16E], the enrichment is 0.53 log2 (difference from the parental peptide).
Under chain 1 EEDDYTAYAPLTCYFL [chain 1 T16L] stands 0.694 log2 (difference from the parental peptide); under chain 1 EEDDYTAYAPLTCYFV [chain 1 T16V], -0.0944 log2 (difference from the parental peptide).
Consider chain 1 EEDDYTAYAPLTCYFS [chain 1 T16S], for which the enrichment was 1.36 log2 (difference from the parental peptide).
In the case of chain 1 EEDDYTAYAPLTCYFW [chain 1 T16W], the enrichment is -0.731 log2 (difference from the parental peptide).
On to chain 1 EEDDYTAYAPLTCYFH [chain 1 T16H], for which the enrichment was 0.765 log2 (difference from the parental peptide).
Regarding chain 1 EEDDYTAYWPLTCYFT [chain 1 A9W], the enrichment was -3.76 log2 (difference from the parental peptide).
chain 1 EEDDYTAYSPLTCYFT [chain 1 A9S]: the enrichment was -2.79 log2 (difference from the parental peptide).
Take chain 1 EEDDYTAYGPLTCYFT [chain 1 A9G]: the enrichment is -7.69 log2 (difference from the parental peptide).
As to chain 1 EEDDYTAYNPLTCYFT [chain 1 A9N], the enrichment is -4.75 log2 (difference from the parental peptide).
As to chain 1 EEDDYTAYMPLTCYFT [chain 1 A9M], the enrichment is -5.79 log2 (difference from the parental peptide).
As to chain 1 EEDDYTAYHPLTCYFT [chain 1 A9H], the enrichment was -6.63 log2 (difference from the parental peptide).
For the variant chain 1 EEDDYTAYLPLTCYFT [chain 1 A9L], the enrichment was -6.75 log2 (difference from the parental peptide).
For chain 1 EEDDYTAYTPLTCYFT [chain 1 A9T], the enrichment was -3.93 log2 (difference from the parental peptide).
With chain 1 EEDDYTADAPLTCYFT [chain 1 Y8D], the enrichment is -7.54 log2 (difference from the parental peptide).
Turning to chain 1 EEDDYTAFAPLTCYFT [chain 1 Y8F], the enrichment was -0.0331 log2 (difference from the parental peptide).
Consider chain 1 EEDDYTAWAPLTCYFT [chain 1 Y8W], for which the enrichment was -2.54 log2 (difference from the parental peptide).
As to chain 1 EEDDYTACAPLTCYFT [chain 1 Y8C], the enrichment is -9.68 log2 (difference from the parental peptide).
For the variant chain 1 EEDDYTAAAPLTCYFT [chain 1 Y8A], the enrichment is -7.77 log2 (difference from the parental peptide).
To chain 1 EEDDYTAYAPLTWYFT [chain 1 C13W] belongs -3.31 log2 (difference from the parental peptide).
As to chain 1 EEDDYTAYAPLTFYFT [chain 1 C13F], the enrichment is -6.63 log2 (difference from the parental peptide).
For chain 1 EEDDYTAYAPLTSYFT [chain 1 C13S], the enrichment is -3.73 log2 (difference from the parental peptide).
Under chain 1 EEDDYTAYAPLTLYFT [chain 1 C13L] stands -6.36 log2 (difference from the parental peptide); under chain 1 PEDDYTAYAPLTCYFT [chain 1 E1P], -2.84 log2 (difference from the parental peptide); under chain 1 NEDDYTAYAPLTCYFT [chain 1 E1N], -1.54 log2 (difference from the parental peptide).
As to chain 1 IEDDYTAYAPLTCYFT [chain 1 E1I], the enrichment was -1.58 log2 (difference from the parental peptide).
On to chain 1 REDDYTAYAPLTCYFT [chain 1 E1R], for which the enrichment is -5.65 log2 (difference from the parental peptide).
To chain 1 WEDDYTAYAPLTCYFT [chain 1 E1W] belongs -2.09 log2 (difference from the parental peptide); to chain 1 LEDDYTAYAPLTCYFT [chain 1 E1L], -1.9 log2 (difference from the parental peptide).
As to chain 1 HEDDYTAYAPLTCYFT [chain 1 E1H], the enrichment was -2.89 log2 (difference from the parental peptide).
Take chain 1 VEDDYTAYAPLTCYFT [chain 1 E1V]: the enrichment was -1.89 log2 (difference from the parental peptide).
As for chain 1 KEDDYTAYAPLTCYFT [chain 1 E1K], the enrichment is -4.48 log2 (difference from the parental peptide).
Under chain 1 EEDDYTAYAPMTCYFT [chain 1 L11M] stands 2.52 log2 (difference from the parental peptide); under chain 1 EEDDYTAYAPKTCYFT [chain 1 L11K], 0.195 log2 (difference from the parental peptide); under chain 1 EEDDYTAYAPETCYFT [chain 1 L11E], 0.55 log2 (difference from the parental peptide).
Turning to chain 1 EEDEYTAYAPLTCYFT [chain 1 D4E], the enrichment was -1.08 log2 (difference from the parental peptide).
chain 1 EEDNYTAYAPLTCYFT [chain 1 D4N]: the enrichment was -4.06 log2 (difference from the parental peptide).
As to chain 1 EEDVYTAYAPLTCYFT [chain 1 D4V], the enrichment is -8.27 log2 (difference from the parental peptide).
On to chain 1 EEDYYTAYAPLTCYFT [chain 1 D4Y], for which the enrichment was -4.71 log2 (difference from the parental peptide).
chain 1 EEDFYTAYAPLTCYFT [chain 1 D4F]: the enrichment was -7.18 log2 (difference from the parental peptide).
chain 1 EEDAYTAYAPLTCYFT [chain 1 D4A]: the enrichment is -8.08 log2 (difference from the parental peptide).
Turning to chain 1 EEDDYEAYAPLTCYFT [chain 1 T6E], the enrichment was 2.68 log2 (difference from the parental peptide).
Consider chain 1 EEDDYNAYAPLTCYFT [chain 1 T6N], for which the enrichment was 1.76 log2 (difference from the parental peptide).
Under chain 1 EEDDYDAYAPLTCYFT [chain 1 T6D] stands 3.79 log2 (difference from the parental peptide).
Consider chain 1 EEDDYMAYAPLTCYFT [chain 1 T6M], for which the enrichment was -1.14 log2 (difference from the parental peptide).
For the variant chain 1 EEDDYSAYAPLTCYFT [chain 1 T6S], the enrichment is 3.56 log2 (difference from the parental peptide).
Under chain 1 EEIDYTAYAPLTCYFT [chain 1 D3I] stands -5.15 log2 (difference from the parental peptide); under chain 1 EEKDYTAYAPLTCYFT [chain 1 D3K], -5.36 log2 (difference from the parental peptide).
Under chain 1 EEFDYTAYAPLTCYFT [chain 1 D3F] stands -5 log2 (difference from the parental peptide); under chain 1 EEYDYTAYAPLTCYFT [chain 1 D3Y], -3.98 log2 (difference from the parental peptide).
To chain 1 EEEDYTAYAPLTCYFT [chain 1 D3E] belongs 1.1 log2 (difference from the parental peptide); to chain 1 EEGDYTAYAPLTCYFT [chain 1 D3G], -4.28 log2 (difference from the parental peptide); to chain 1 EEADYTAYAPLTCYFT [chain 1 D3A], -3.86 log2 (difference from the parental peptide).
On to chain 1 ETDDYTAYAPLTCYFT [chain 1 E2T], for which the enrichment was -3.84 log2 (difference from the parental peptide).
Turning to chain 1 EQDDYTAYAPLTCYFT [chain 1 E2Q], the enrichment is -3.9 log2 (difference from the parental peptide).
For the variant chain 1 EMDDYTAYAPLTCYFT [chain 1 E2M], the enrichment is -2.95 log2 (difference from the parental peptide).
With chain 1 ESDDYTAYAPLTCYFT [chain 1 E2S], the enrichment is -3.12 log2 (difference from the parental peptide).
chain 1 ELDDYTAYAPLTCYFT [chain 1 E2L]: the enrichment is -2.82 log2 (difference from the parental peptide).
As to chain 1 EVDDYTAYAPLTCYFT [chain 1 E2V], the enrichment was -2.63 log2 (difference from the parental peptide).
On to chain 1 EDDDYTAYAPLTCYFT [chain 1 E2D], for which the enrichment was 1.62 log2 (difference from the parental peptide).
Regarding chain 1 ENDDYTAYAPLTCYFT [chain 1 E2N], the enrichment was -3.61 log2 (difference from the parental peptide).
Take chain 1 EWDDYTAYAPLTCYFT [chain 1 E2W]: the enrichment was -1.93 log2 (difference from the parental peptide).
To chain 1 EEDDYTYYAPLTCYFT [chain 1 A7Y] belongs -1.54 log2 (difference from the parental peptide); to chain 1 EEDDYTQYAPLTCYFT [chain 1 A7Q], 2.25 log2 (difference from the parental peptide); to chain 1 EEDDYTVYAPLTCYFT [chain 1 A7V], -3.51 log2 (difference from the parental peptide).
To chain 1 EEDDYTTYAPLTCYFT [chain 1 A7T] belongs -1.44 log2 (difference from the parental peptide).
To chain 1 EEDDYTLYAPLTCYFT [chain 1 A7L] belongs -0.735 log2 (difference from the parental peptide); to chain 1 EEDDYTDYAPLTCYFT [chain 1 A7D], 1.26 log2 (difference from the parental peptide); to chain 1 EEDDYTPYAPLTCYFT [chain 1 A7P], 1.84 log2 (difference from the parental peptide).
As to chain 1 EEDDYTMYAPLTCYFT [chain 1 A7M], the enrichment was 1.59 log2 (difference from the parental peptide).
Under chain 1 EEDDYTEYAPLTCYFT [chain 1 A7E] stands 1.56 log2 (difference from the parental peptide).

The values are drawn from paper PMC11969024 (2025).
